Molecular target: rabbit polyclonal antibodies for Peptide 2 (CRNGDD, SEQ ID NO: 2)
Experiment: Western blot, inhibition of H6D antibody binding to CRNGDD-BSA by free peptide, 10 µg peptide/µl antiserum

- percent inhibition: 81%
Binder: CRNGDD [CRNGDD (SEQ ID NO: 2) peptide, free]
